Measurements published in the supplement of paper PMC10567573.

B1: CPN1 (parent)
chain: RGVRRTASTPTPDDKLFQKLAKVY
B2: HESX1 (parent)
chain: QKKDCVPLMKPHRPWADTCSSSGK

Variants of: B1
Assay: protein stability index of a GFP-peptide fusion (GPS, HEK-293T) (PSI 1-6); higher = more stable
Details: c terminus: a fixed tail appended
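Also: lentivirally expressed fusions sorted by FACS into six bins by GFP to DsRed ratio, PSI derived from sequencing read proportions per bin multiplied by bin number.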

Protein stability index: each site, then its substitutions
K15: M 1.33; I 1.76; A 1.58; P 2.12; S 2.02; H 1.75; L 1.8; Y 1.63; E 2.2; Q 2.08; C 1.95; F 3.23; T 1.7; G 2; N 1.7; D 1.99; W 1.93; R 1.78
T11: L 1.52; Q 2.29; K 2.56; R 1.82; G 2.54; F 1.92; H 2.04; N 2.23; S 1.86; V 1.67; Y 2.25; W 1.92; I 1.71; M 2.03
V23: Q 3.44; H 2.78; W 1.92; T 2.4; D 3.02; N 3.73; E 3.84; G 3.09; R 3.84; Y 1.9; A 2.45; P 3.51; C 2.58; S 2.7; M 1.9; K 2.96; F 1.64; I 2.27; L 2.18
L16: V 2.29; Q 3.31; E 2.68; A 2.65; I 2.61; F 1.9; G 3.29; Y 1.92; P 3.29; H 2.64; C 2.52; T 3.43; R 3.34; K 3.56; D 4.21; S 2.95; N 3.32; W 1.85; M 2.65
K19: H 2.12; R 2.49; P 2.93; S 1.74; F 2.53; W 2.21; N 2.16; D 2.67; A 1.62; Q 1.96; Y 1.34; L 2.36; T 1.98; V 2.1; G 2.21; E 2.54
Y24: W 1.98; V 2.7; F 1.95; S 2.72; D 3.48; K 3.95; I 2.6; M 1.66; N 3.33; C 2.22; G 3; R 2.29; L 2.49; A 2.51; Q 2.92; E 3.49; H 3.1; P 2.72; T 3.64
F17: S 2.94; I 2.53; V 2.58; H 2.63; G 3.25; E 3.95; D 3.32; T 3.67; M 3; A 3.19; P 2.84; W 2.26; C 2.96; N 2.88; L 2.15; Y 2.28; K 3.5; Q 3.21; R 3.43
P12: G 2.4; W 2.48; S 3.04; K 2.32; M 2.01; T 1.81; A 2.06; Y 2.94; Q 2.05; N 1.98; C 1.65; I 1.89; V 1.68; F 2.38; R 1.89; H 1.94; E 3.13; L 1.44; D 2.37
L20: C 2.56; V 3.48; M 2.23; K 3.68; G 3.86; A 3.4; S 3.7; Q 3.17; I 1.92; W 2.58; D 4.06; Y 2.4; P 3.58; T 3.52; N 3.48; F 1.82; H 3.22; R 3.3; E 3.85
K22: N 2.4; M 2.04; E 1.87; S 1.93; F 1.96; I 1.45; G 2.82; C 1.8; P 2.37; T 1.96; Y 1.97; Q 1.7; D 1.95; R 2.07; W 2.19; L 2.73; A 2.19; V 2.14; H 1.98
D14: S 2.63; C 1.56; V 2.19; T 2.38; K 2.35; N 1.54; Q 2.35; F 1.75; R 1.93; M 2.45; H 2.32; G 2.78; I 1.23; A 2.05; L 1.64; W 1.68; Y 1.48; E 1.95
D13: C 1.2; Y 2.24; R 1.63; N 1.89; S 2.02; T 1.27; W 1.61; M 2.59; H 2.08; G 2.37; L 1.65; V 1.78; K 1.88; Q 1.94; A 1.97; E 1.24; F 1.99
A21: W 2.22; M 1.73; L 1.58; K 1.76; C 2.22; Y 2.27; I 1.85; G 3.23; E 3.11; R 1.83; N 2.66; F 1.64; H 2.29; T 1.78; S 2.15; P 2.62; V 1.6; Q 2.48; D 2.78
Q18: T 2.42; Y 1.78; K 1.84; P 2.7; E 2.19; M 1.47; R 1.77; F 1.43; A 1.93; G 2.29; H 2.02; S 2.09; D 2.32; C 2.6; V 1.82; N 1.8; W 1.37; I 1.75; L 1.69

Variants of: B2
Assay: as above
Details: c terminus: a fixed tail appended

Protein stability index, by site and new letter:
K3: P 3.62; L 3.42; W 4.36; N 3.67; A 3.52; S 3.69; Q 3.06; T 3.13; D 3.81; F 4.05; G 3.2; V 3.47; Y 3.06; R 2.92; I 3.01; M 3.53; C 3.27; H 3.66
K2: W 2.88; C 4.18; G 3.06; H 3.4; Y 2.51; F 3.46; D 4.3; A 3.27; L 3.3; M 3.24; E 4.16; I 3.17; P 3.89; T 3.67; S 3.06; V 3.12; N 3.33
D4: T 2.49; W 2.39; V 2.17; Y 2.72; R 2.43; F 2.61; G 3.05; K 2.89; P 2.86; N 3.24; Q 3.54; M 2.12; L 2.38; H 3.08; I 3.25; C 2.38; S 2.92; A 2.87
Q1: M 3.03; G 4.01; T 3.4; Y 2.45; W 2.69; A 2.76; R 3.74; P 3.66; S 3.49; H 3.86; C 2.94; N 3.22; K 3.06; E 3.98; D 3.95; F 3.17; I 3.46; L 2.01
C5: I 2.51; H 3.83; E 4.15; D 3.57; K 2.81; F 3.38; L 3.59; G 2.62; A 3.08
